Test: yeast display, Sf9 membrane polyspecificity reagent, FACS + sequencing; frameworks hold sequencing errors
Summary of the method: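 A nanobody's polyreactivity label depends on the gate it was sorted from. Yeast display cells were stained with 10% biotinylated, detergent-solubilized Sf9 membrane reagent for 1 hour at 4 °C, enriched on streptavidin microbeads and sorted by FACS. The low and high (top ~1%) gates were set on anti-HA fluorescence for expression and streptavidin fluorescence for reagent binding.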

Sequence	polyreactivity (PSR sort gate)
QVQLVESGAGLVQAGGRLRISCAASGSTFDGNTMGWYRQAPGKERELVAAISGSGGSTYYADSVKGRFTISRDNAKNTVYLQMNSLKPEDTAVYYCAADFRVGRYDYWGQGTQVTVSS	high polyreactivity
QVQLVESGAGLVQAGGSLGLSCAASGSNFIYNAMGLYRQAPGKERELVAAITDRSTKYADSVKGRFTISRDNAKYSGYVQMNSLKTEDTAVYYSNAYVWRWRYDSWGQVTQVTVSS	low polyreactivity
QVQLVESGAGLVQAGGSLRFSCAASGFIFVDNTMGWSSQAPGKEMELVAAISYSAGSTYYADSVKGRFTISRDNAMNTVYLQMNCLKPEDTAVYDCAAQHSWVTSYLYSYDYWGQGTQVTVSS	low polyreactivity
QVQLVESGAGLVQAGGSLRISCAASGSTFDGNDIGWYRQAPGKERELVAAITIGGGSTYYADSVKGRFTISRDNAKNTVYLQMNSLKPEDTAVYYCAKDDHTGVHTYPGDYWGQGTQVTVSS	low polyreactivity
QVQLVESGAGLVQAGGSLRLCCAASGRTYRLYAMGWYRQAPGKERELVAAITRGGRTNYADSVKGRFTISRDNAINTVYLQMYSLKPEDIAVYYCAARYVERHTDYYYWGQGTQVTVSS	low polyreactivity
QVQLVESGAGLVQAGGSLRLCCAASGSTFTKNAMGLYRQAPGKERELVAAISWRDGSTYYADSVKGRFTISRDNAKNTVYLQMNSLKPEDTAVYYCNAVRRSFGKYPGLLDYDYWGQGTQVTVSS	high polyreactivity
QVQLVESGAGLVQAGGSLRLICAASGFIFADYAMGWYRQAPGKERELVAAITSSGSRTYYADSVKGRFTISRDNAKNTVYLQMNSLKPEDTAVYYCAVRGVYYYHFAFDYWGQGTQVTVSS	high polyreactivity
QVQLVESGAGLVQAGGSLRLSCAASGFIFFYYAMGWYRQAPGKERELVAAISASGGSTYYADSVKGRFTISRDNAKNTVYLQLNSLKPEDTAVYYCAARYRKAESARWEYDYWGQGTQVTVSS	high polyreactivity
QVQLVESGAGLVQAGGSLRLSCAASGFIFNRYAMGWYRQAPGKERELVAAIRGSGGSTYADSVKGRFTISRDNAKNTVYLQMNSLKPEDTAVYYCNKERPRRNGQVARYDYWGQGTQVTVSS	low polyreactivity
QVQLVESGAGLVQAGGSLRLSCAASGFIFRGNTMGWYRQAPGKERELVASITRGGGRTYYADSVKGRFTISRDNAKNTVYLQMNSLKPEDTAVYYCAARTRSDNSYHGGEYWGQGTQVTVSS	high polyreactivity
QVQLVESGAGLVQAGGSLRLSCAASGIFVRYGMGWYRQAPGKERELVAAISYGGGSTYYADSVKGRFTISRDNAKITVYLQMNSLKPEDTAVYYCAASYANRYKYDEYDYWGQGTQVTVSS	high polyreactivity
QVQLVESGAGLVQAGGSLRLSCAASGITFSKYAMGWYRVARGKDRELVAAISSTASTNYADSVKGRFTISRDNAKNTVYLQMNSQKPDDTAVYYCNDVLFFQLFWTYDDYWGQGSQVTVSS	low polyreactivity
QVQLVESGAGLVQAGGSLRLSCAASGLTFFYYAMGWYRQAPGKERELVAAIDNDGGTYYADSVKGRFTISRDNAKNTVYLLMNSLKPEDTAVYYCNADYQTVDDPYGYDYWGQGTQVTVSS	low polyreactivity
QVQLVESGAGLVQAGGSLRLSCAASGRIFADYAMGWYRQAPGKERELVADIRQSGGRTYYADSVKGRFTISRDNAKNTVYLQMNSLKPEDTAVYYCATDYGSWGDYSGKYDYWGQGTQVTVSS	low polyreactivity
QVQLVESGAGLVQAGGSLRLSCAASGRIFAGYAMGWYRQAPGKEMELVATISSGGSTYYADSVKGRFTISRYNAKNTVYLQMNSLKPEVTAVYYCAADNWVNDGDYCGQGTQVTVSS	low polyreactivity
QVQLVESGAGLVQAGGSLRLSCAASGRIFHKYAMGWYRQAPGKERELVAAIDWSGGSTYYADSVKGRFTISRDNAKNTVYLQMNSLKPEDTAVYYCAAYWYYEDGQCEARLYGYDYWGQGTQVTVSS	low polyreactivity
QVQLVESGAGLVQAGGSLRLSCAASGRIFLGNAMGWYRQAPGKERELVAAISRSGVTRYYADSVKGRFTISRYNGKNTVYLQMNSLKPEDTAVYYCAVERYDRFDHYYWVQGTQVTVSS	low polyreactivity
QVQLVESGAGLVQAGGSLRLSCAASGRIFYKYVMGWYRQAPGKERELVATITSGGSTYYADSVKGRFTISRDNAKNTVYLQMNSLKPEDTAVYYCATKQSRTRYDRYGYWGQGTQVNVSS	high polyreactivity
QVQLVESGAGLVQAGGSLRLSCAASGRTFFRYVMGWYRQAPGKERELVAAIRSGGSTNYADSVKGRFTISLDNAKNTVYLQMNSLKPEDTAVYYCAARKWHSAYDYWVQGTQVTVSS	high polyreactivity
QVQLVESGAGLVQAGGSLRLSCAASGRTFRINTMGWSIQAPGKERELVATITGSGGSTYYADSVKGRFTISRDNAKNTVYLQMNSLKPEDTAVYYCAAVGDQNEYDYWGQGTQVTVSS	low polyreactivity
QVQLVESGAGLVQAGGSLRLSCAASGRTFSAYAMGWYRQAPGKERELVAAITLSVGSTYYADSVKGRFTISRDNAKTTVYLQMNSLKPEDTAVYYCNKYKKGEGGITIVRFDYWGQGTQVTVSS	low polyreactivity
QVQLVESGAGLVQAGGSLRLSCAASGSIFDYYAMGLYRQAPGKERELVAVITRGGSTYYADSVKGRFTISRDNAKNTDSLQMNSLKPEDTAVYYCNASRGYKSRYEYWGQGTQVTVSS	high polyreactivity
QVQLVESGAGLVQAGGSLRLSCAASGSIFEYYAMGWYRQAPGKERELVAAISSGGPTYYADSVKGRFTISRDNAKNTVYLQMNSLKPEDTAVYYCNAALRYPDYDYWGQGTQVTVSS	low polyreactivity
QVQLVESGAGLVQAGGSLRLSCAASGSIFRKYGMGLYRQAPGKDRELVATITSSGGSTYYADSVKGRFRISRDNAKNTVYVQMNSLIPEDTAVYYCAARWTYSFHWFSRYDYWGPGTQVTVSS	high polyreactivity
QVQLVESGAGLVQAGGSLRLSCAASGSIFYYYAMGWYRQAPGKEREFVAAIRESGGSTYYADSVKGRFTISRDNAKNTVYLQMNSLKPEDTAVYYCAVRRPRRNYNYPYDYWGLGTQVTVSS	low polyreactivity
QVQLVESGAGLVQAGGSLRLSCAASGSTFRSNAMGWYRPAPGKEREFVASITSRGGPTYYADSVKGRFTISRDNAKNTVYLQMKSLKPEDTAVYYCASARSYLTYFYHYDYWGQGTQVTVSS	low polyreactivity
QVQLVESGAGLVQAGGSLRLSCAASGSTLVGNTMGWYRQSPGKERELVAAITGVGSTNYADSVKGRFTISRDNAKNTVYLQMNSLKPEDTAVYYCAVDGRSVQARWPRFDYWGQGTQVTVSS	low polyreactivity
QVQLVESGAGLVQAGGSLRLSCAASGYAMGWYRQAPGKERELVAAITSNGGRTYYADSVKGRFTISRDYAKNTVYLEMNSLKPEDTAVYYCATRTGPHYKTRWTYDQGYWGQGTQVTVSS	low polyreactivity
QVQLVESGAGLVQAGGSLRLSCAASGYIFGQNAMGWYRQAPGKERELVASISDGGSTYYADSVKGRFTISRDNAKNTVYLQMNSLKPEDTAVYYCAAGQDWGEKALGAWLFDYWGHGTQVTVSS	low polyreactivity
QVQLVESGAGLVQAGGSLRLSCAASVSIFDIYAMGWYRQAPGKERELVADISWSGGSTYYADSVKGRFTISRDNAKNSVYLQMNSLKPEDTAVFDCAAELYGFTVDPGDYWGQGTQVTVSS	low polyreactivity

Reference: the nanobody polyreactivity screen of Harvey et al. (2022)
